Test results taken from US20130005646A1 (Novo Nordisk, published 2013).
Starred links: 1 amine or outer side, 2 acyl side, 3 side chain; linkers in the order of their positions; H or OH if unused. Positions of bridges follow the written chain, without caps; N, C: chain ends. *: point of attachment. C20 diacid = O=C(O)CCCCCCCCCCCCCCCCCCC(=O)*; γGlu = O=C(O)[C@H](CCC(=O)[*:2])N[*:1]

T1: human amylin 3(a) receptor (human calcitonin receptor + RAMP-3) (human, UniProt P30988 25-474; O60896 24-148)
T1 sequence (looked up) 1: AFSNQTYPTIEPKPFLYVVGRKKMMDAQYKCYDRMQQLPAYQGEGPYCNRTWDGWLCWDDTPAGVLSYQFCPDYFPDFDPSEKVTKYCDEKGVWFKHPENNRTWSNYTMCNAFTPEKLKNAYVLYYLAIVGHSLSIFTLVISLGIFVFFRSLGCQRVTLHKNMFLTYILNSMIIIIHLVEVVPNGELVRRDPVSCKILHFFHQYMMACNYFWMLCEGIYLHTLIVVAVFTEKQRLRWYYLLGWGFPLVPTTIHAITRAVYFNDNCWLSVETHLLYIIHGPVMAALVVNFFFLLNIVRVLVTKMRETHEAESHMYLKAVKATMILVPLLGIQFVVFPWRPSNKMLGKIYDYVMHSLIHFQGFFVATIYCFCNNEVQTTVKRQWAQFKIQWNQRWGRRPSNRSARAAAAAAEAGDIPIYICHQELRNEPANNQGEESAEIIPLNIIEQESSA
T1 sequence (looked up) 2: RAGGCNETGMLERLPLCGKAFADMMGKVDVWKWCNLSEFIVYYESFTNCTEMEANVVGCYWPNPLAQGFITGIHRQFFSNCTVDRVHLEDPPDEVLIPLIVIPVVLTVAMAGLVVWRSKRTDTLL

T2: human calcitonin (a) receptor (human, UniProt P30988 25-474)
T2 sequence (looked up): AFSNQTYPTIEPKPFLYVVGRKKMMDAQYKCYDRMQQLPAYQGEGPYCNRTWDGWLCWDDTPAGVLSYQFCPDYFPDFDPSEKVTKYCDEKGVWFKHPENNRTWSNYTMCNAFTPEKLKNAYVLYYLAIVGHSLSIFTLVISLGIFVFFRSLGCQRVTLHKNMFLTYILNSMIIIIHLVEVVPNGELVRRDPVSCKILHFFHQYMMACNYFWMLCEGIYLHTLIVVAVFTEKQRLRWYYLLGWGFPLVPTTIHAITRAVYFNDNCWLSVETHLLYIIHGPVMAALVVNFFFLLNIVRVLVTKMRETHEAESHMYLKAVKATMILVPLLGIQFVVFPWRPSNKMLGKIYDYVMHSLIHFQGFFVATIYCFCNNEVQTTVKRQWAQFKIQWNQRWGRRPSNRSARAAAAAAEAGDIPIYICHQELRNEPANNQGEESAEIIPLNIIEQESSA


What was measured:
[1] = target: T1, human amylin 3(a) receptor (human …); test: cell-based or functional assay
[2] = target: T2, human calcitonin (a) receptor; test: cell-based or functional assay

| Amylin receptor human EC50 [1] [pM] | CTa receptor human EC50 [2] [pM] | Binder |
| --- | --- | --- |
| 96.5 | 114 | {C20 diacid-γGlu}-HHKCNTATCATQRLAEFLHHSSNNFGPILPPTNVGSHTY-NH2 (disulfide 4-9; SMILES CC[C@H](C)[C@H](NC(=O)[C@@H]1CCCN1C(=O)CNC(=O)[C@H](Cc1ccccc1)NC(=O)[C@H](CC(N)=O)NC(=O)[C@H](CC(N)=O)NC(=O)[C@H](CO)NC(=O)[C@H](CO)NC(=O)[C@H](Cc1c[nH]cn1)NC(=O)[C@H](Cc1c[nH]cn1)NC(=O)[C@H](CC(C)C)NC(=O)[C@H](Cc1ccccc1)NC(=O)[C@H](CCC(=O)O)NC(=O)[C@H](C)NC(=O)[C@H](CC(C)C)NC(=O)[C@H](CCCNC(=N)N)NC(=O)[C@H](CCC(N)=O)NC(=O)[C@@H](NC(=O)[C@H](C)NC(=O)[C@@H]1CSSC[C@H](NC(=O)[C@H](CCCCN)NC(=O)[C@H](Cc2c[nH]cn2)NC(=O)[C@H](Cc2c[nH]cn2)NC(=O)CC[C@H](NC(=O)CCCCCCCCCCCCCCCCCCC(=O)O)C(=O)O)C(=O)N[C@@H](CC(N)=O)C(=O)N[C@@H]([C@@H](C)O)C(=O)N[C@@H](C)C(=O)N[C@@H]([C@@H](C)O)C(=O)N1)[C@@H](C)O)C(=O)N[C@@H](CC(C)C)C(=O)N1CCC[C@H]1C(=O)N1CCC[C@H]1C(=O)N[C@H](C(=O)N[C@@H](CC(N)=O)C(=O)N[C@H](C(=O)NCC(=O)N[C@@H](CO)C(=O)N[C@@H](Cc1c[nH]cn1)C(=O)N[C@H](C(=O)N[C@@H](Cc1ccc(O)cc1)C(N)=O)[C@@H](C)O)C(C)C)[C@@H](C)O) |
| 101 | 614 | {C20 diacid-γGlu}-HHKCNTATCATQRLAEFLRHSSNNFGPILPPTNVGSHTY-NH2 (disulfide 4-9; SMILES CC[C@H](C)[C@H](NC(=O)[C@@H]1CCCN1C(=O)CNC(=O)[C@H](Cc1ccccc1)NC(=O)[C@H](CC(N)=O)NC(=O)[C@H](CC(N)=O)NC(=O)[C@H](CO)NC(=O)[C@H](CO)NC(=O)[C@H](Cc1c[nH]cn1)NC(=O)[C@H](CCCNC(=N)N)NC(=O)[C@H](CC(C)C)NC(=O)[C@H](Cc1ccccc1)NC(=O)[C@H](CCC(=O)O)NC(=O)[C@H](C)NC(=O)[C@H](CC(C)C)NC(=O)[C@H](CCCNC(=N)N)NC(=O)[C@H](CCC(N)=O)NC(=O)[C@@H](NC(=O)[C@H](C)NC(=O)[C@@H]1CSSC[C@H](NC(=O)[C@H](CCCCN)NC(=O)[C@H](Cc2c[nH]cn2)NC(=O)[C@H](Cc2c[nH]cn2)NC(=O)CC[C@H](NC(=O)CCCCCCCCCCCCCCCCCCC(=O)O)C(=O)O)C(=O)N[C@@H](CC(N)=O)C(=O)N[C@@H]([C@@H](C)O)C(=O)N[C@@H](C)C(=O)N[C@@H]([C@@H](C)O)C(=O)N1)[C@@H](C)O)C(=O)N[C@@H](CC(C)C)C(=O)N1CCC[C@H]1C(=O)N1CCC[C@H]1C(=O)N[C@H](C(=O)N[C@@H](CC(N)=O)C(=O)N[C@H](C(=O)NCC(=O)N[C@@H](CO)C(=O)N[C@@H](Cc1c[nH]cn1)C(=O)N[C@H](C(=O)N[C@@H](Cc1ccc(O)cc1)C(N)=O)[C@@H](C)O)C(C)C)[C@@H](C)O) |
| 93.5 | 430 | {C20 diacid-γGlu}-HKCNTATCATQRLAEFLRHSSNNFGPILPPTNVGSHTY-NH2 (disulfide 3-8; SMILES CC[C@H](C)[C@H](NC(=O)[C@@H]1CCCN1C(=O)CNC(=O)[C@H](Cc1ccccc1)NC(=O)[C@H](CC(N)=O)NC(=O)[C@H](CC(N)=O)NC(=O)[C@H](CO)NC(=O)[C@H](CO)NC(=O)[C@H](Cc1c[nH]cn1)NC(=O)[C@H](CCCNC(=N)N)NC(=O)[C@H](CC(C)C)NC(=O)[C@H](Cc1ccccc1)NC(=O)[C@H](CCC(=O)O)NC(=O)[C@H](C)NC(=O)[C@H](CC(C)C)NC(=O)[C@H](CCCNC(=N)N)NC(=O)[C@H](CCC(N)=O)NC(=O)[C@@H](NC(=O)[C@H](C)NC(=O)[C@@H]1CSSC[C@H](NC(=O)[C@H](CCCCN)NC(=O)[C@H](Cc2c[nH]cn2)NC(=O)CC[C@H](NC(=O)CCCCCCCCCCCCCCCCCCC(=O)O)C(=O)O)C(=O)N[C@@H](CC(N)=O)C(=O)N[C@@H]([C@@H](C)O)C(=O)N[C@@H](C)C(=O)N[C@@H]([C@@H](C)O)C(=O)N1)[C@@H](C)O)C(=O)N[C@@H](CC(C)C)C(=O)N1CCC[C@H]1C(=O)N1CCC[C@H]1C(=O)N[C@H](C(=O)N[C@@H](CC(N)=O)C(=O)N[C@H](C(=O)NCC(=O)N[C@@H](CO)C(=O)N[C@@H](Cc1c[nH]cn1)C(=O)N[C@H](C(=O)N[C@@H](Cc1ccc(O)cc1)C(N)=O)[C@@H](C)O)C(C)C)[C@@H](C)O) [N-alpha-[(S)-4-Carboxy-4-(19-carboxynonadecanoylamino)butyryl]-His-[Glu14,Arg17,His35]-pramlintide] |
| 153 | 94.5 | {C20 diacid-γGlu}-KCNTATCATQRLAEFLHHSSNNFGAPLSSTNVGSHTY-NH2 (disulfide 2-7; SMILES CC(C)C[C@H](NC(=O)[C@H](CCCNC(=N)N)NC(=O)[C@H](CCC(N)=O)NC(=O)[C@@H](NC(=O)[C@H](C)NC(=O)[C@@H]1CSSC[C@H](NC(=O)[C@H](CCCCN)NC(=O)CC[C@H](NC(=O)CCCCCCCCCCCCCCCCCCC(=O)O)C(=O)O)C(=O)N[C@@H](CC(N)=O)C(=O)N[C@@H]([C@@H](C)O)C(=O)N[C@@H](C)C(=O)N[C@@H]([C@@H](C)O)C(=O)N1)[C@@H](C)O)C(=O)N[C@@H](C)C(=O)N[C@@H](CCC(=O)O)C(=O)N[C@@H](Cc1ccccc1)C(=O)N[C@@H](CC(C)C)C(=O)N[C@@H](Cc1c[nH]cn1)C(=O)N[C@@H](Cc1c[nH]cn1)C(=O)N[C@@H](CO)C(=O)N[C@@H](CO)C(=O)N[C@@H](CC(N)=O)C(=O)N[C@@H](CC(N)=O)C(=O)N[C@@H](Cc1ccccc1)C(=O)NCC(=O)N[C@@H](C)C(=O)N1CCC[C@H]1C(=O)N[C@@H](CC(C)C)C(=O)N[C@@H](CO)C(=O)N[C@@H](CO)C(=O)N[C@H](C(=O)N[C@@H](CC(N)=O)C(=O)N[C@H](C(=O)NCC(=O)N[C@@H](CO)C(=O)N[C@@H](Cc1c[nH]cn1)C(=O)N[C@H](C(=O)N[C@@H](Cc1ccc(O)cc1)C(N)=O)[C@@H](C)O)C(C)C)[C@@H](C)O) |
| 558 | 632 | {C20 diacid-γGlu}-HHHCNTATCATQRLAEFLHHSSSNFGPILPPTNVGSETY-NH2 (disulfide 4-9; SMILES CC[C@H](C)[C@H](NC(=O)[C@@H]1CCCN1C(=O)CNC(=O)[C@H](Cc1ccccc1)NC(=O)[C@H](CC(N)=O)NC(=O)[C@H](CO)NC(=O)[C@H](CO)NC(=O)[C@H](CO)NC(=O)[C@H](Cc1c[nH]cn1)NC(=O)[C@H](Cc1c[nH]cn1)NC(=O)[C@H](CC(C)C)NC(=O)[C@H](Cc1ccccc1)NC(=O)[C@H](CCC(=O)O)NC(=O)[C@H](C)NC(=O)[C@H](CC(C)C)NC(=O)[C@H](CCCNC(=N)N)NC(=O)[C@H](CCC(N)=O)NC(=O)[C@@H](NC(=O)[C@H](C)NC(=O)[C@@H]1CSSC[C@H](NC(=O)[C@H](Cc2c[nH]cn2)NC(=O)[C@H](Cc2c[nH]cn2)NC(=O)[C@H](Cc2c[nH]cn2)NC(=O)CC[C@H](NC(=O)CCCCCCCCCCCCCCCCCCC(=O)O)C(=O)O)C(=O)N[C@@H](CC(N)=O)C(=O)N[C@@H]([C@@H](C)O)C(=O)N[C@@H](C)C(=O)N[C@@H]([C@@H](C)O)C(=O)N1)[C@@H](C)O)C(=O)N[C@@H](CC(C)C)C(=O)N1CCC[C@H]1C(=O)N1CCC[C@H]1C(=O)N[C@H](C(=O)N[C@@H](CC(N)=O)C(=O)N[C@H](C(=O)NCC(=O)N[C@@H](CO)C(=O)N[C@@H](CCC(=O)O)C(=O)N[C@H](C(=O)N[C@@H](Cc1ccc(O)cc1)C(N)=O)[C@@H](C)O)C(C)C)[C@@H](C)O) |
